According to patent publication US20150010572A1 (SAMSUNG ELECTRONICS, published 2015):

T1: mutant Ang-2 protein, Q418 substituted with alanine (FLAG-tagged at N-terminal) (human, UniProt O15123 281-496, limits assumed)
T1 construct: also called Q418A mutant protein; Ang-2 protein having Q418A mutation
T1 chain: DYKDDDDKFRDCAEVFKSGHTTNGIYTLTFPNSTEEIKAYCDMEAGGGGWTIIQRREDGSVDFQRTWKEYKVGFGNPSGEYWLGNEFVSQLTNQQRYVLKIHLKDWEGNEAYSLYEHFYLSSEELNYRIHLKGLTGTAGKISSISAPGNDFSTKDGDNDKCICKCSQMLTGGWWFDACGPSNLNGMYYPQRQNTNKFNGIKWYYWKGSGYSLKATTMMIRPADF

T2: mutant Ang-2 protein, F469 substituted with alanine (FLAG-tagged at N-terminal) (human, UniProt O15123 281-496, limits assumed)
T2 chain: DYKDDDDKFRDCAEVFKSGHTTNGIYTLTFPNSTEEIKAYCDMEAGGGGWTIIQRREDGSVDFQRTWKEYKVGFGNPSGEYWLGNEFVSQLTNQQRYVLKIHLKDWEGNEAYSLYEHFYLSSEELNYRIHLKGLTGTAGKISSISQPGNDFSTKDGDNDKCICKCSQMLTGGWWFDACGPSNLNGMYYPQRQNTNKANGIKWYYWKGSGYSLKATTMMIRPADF

T3: mutant Ang-2 protein, N421 substituted with alanine (FLAG-tagged at N-terminal) (human, UniProt O15123 281-496, limits assumed)
T3 chain: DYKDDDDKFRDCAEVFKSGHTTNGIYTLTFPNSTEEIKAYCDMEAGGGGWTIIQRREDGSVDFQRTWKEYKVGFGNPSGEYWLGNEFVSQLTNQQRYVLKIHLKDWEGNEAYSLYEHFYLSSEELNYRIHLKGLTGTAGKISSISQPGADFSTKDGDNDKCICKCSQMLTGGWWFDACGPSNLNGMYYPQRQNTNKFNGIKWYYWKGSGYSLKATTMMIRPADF

T4: mutant Ang-2 protein, N467 substituted with alanine (FLAG-tagged at N-terminal) (human, UniProt O15123 281-496, limits assumed)
T4 chain: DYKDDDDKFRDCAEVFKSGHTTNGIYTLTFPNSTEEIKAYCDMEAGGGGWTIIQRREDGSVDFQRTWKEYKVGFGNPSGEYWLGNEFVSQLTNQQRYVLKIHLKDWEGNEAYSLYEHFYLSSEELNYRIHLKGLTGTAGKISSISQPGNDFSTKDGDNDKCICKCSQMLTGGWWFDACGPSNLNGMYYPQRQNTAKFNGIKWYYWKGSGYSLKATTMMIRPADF

T5: mutant Ang-2 protein, P452 substituted with alanine (FLAG-tagged at N-terminal) (human, UniProt O15123 281-496, limits assumed)
T5 chain: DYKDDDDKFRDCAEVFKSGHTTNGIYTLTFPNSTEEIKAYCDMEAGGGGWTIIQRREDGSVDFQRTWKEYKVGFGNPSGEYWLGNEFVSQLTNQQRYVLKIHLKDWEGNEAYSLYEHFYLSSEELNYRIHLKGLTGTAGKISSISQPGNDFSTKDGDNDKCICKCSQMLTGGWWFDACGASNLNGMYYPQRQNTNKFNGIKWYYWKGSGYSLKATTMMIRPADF

T6: mutant Ang-2 protein, Y460 substituted with alanine (FLAG-tagged at N-terminal) (human, UniProt O15123 281-496, limits assumed)
T6 chain: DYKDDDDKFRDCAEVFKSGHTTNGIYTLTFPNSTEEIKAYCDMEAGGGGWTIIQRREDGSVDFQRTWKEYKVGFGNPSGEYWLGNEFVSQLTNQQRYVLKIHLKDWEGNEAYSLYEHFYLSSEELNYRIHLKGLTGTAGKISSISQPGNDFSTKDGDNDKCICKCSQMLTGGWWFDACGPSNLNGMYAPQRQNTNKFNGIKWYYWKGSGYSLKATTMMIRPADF

B1: SAIT-Ang-2-AB-m8B3 (antibody, V domains shown)
VH: DVQLQESGPGLVKPSQSLSLSCTVTGYSIASDYAWNWIRQFPGNKVEWMGYINYRGNTDYNPSLKSRSSINRDTSKNQFFLQLNSVTTGDTATYYCARGNFEGAMDYWGQGTSVTVSS
VL: TIVMTQTPKFLLVSAGDRITITCKASQSVSNDVAWYQQKPGQSPKLLIYYASNRYPGVPDRFTGSGYGTDFTFTISTVQAEDLAVYFCQQDYTSPWTFGGGTELEIK
notes: also called KCLRF-BP-00293
B2: SAIT-Ang-2-AB-m2E7 (antibody, V domains shown)
VH: DLQLQESGPGLVKPSQSLSLTCTVTGYSITSDYAWNWIRQFPGNKLEWMGYISYSGSTSYNPSLKSRISITRDTSKNQFFLQLNSLTTEDTATYYCARGDYGNYVGPMDYWGQGTSVTVSS
VL: SIVMTQTPKFLLVSAGDRVTITCKASQSVSNDVAWYRQKPGQSPKLLIYYASNRYTGVPDRFTGSGYGTDFTFTISTVQAEDLAVYFCQQDYSSPLTFGARTKLELK
notes: also called KCLRF-BP-00294

What was measured:
Assay in all cases: ELISA, antibody coated, 250 ng FLAG-tagged mutant Ang-2, anti-FLAG-HRP, OD450 relative to native Ang-2
[1] = biological target: T1, mutant Ang-2 protein, Q418 substituted …
Method: (§1) Each well of a 96-well MaxiSorp™ flat-bottom plate (Nunc) was coated with 50 ul (microliter) of 1000 nM antibodies (Example 2). Then, the plate was washed five times with a 0.05% (v/v) Tween-20 containing PBS (PBST) and blocked with a 1% (v/v) BSA containing PBS at a room temperature for 2 hours. 250 ng of each mutant Ang-2 protein obtained by substituting S417, Q418, P419, N421, 1434, D448, A449, P452, Y460, N467, K468, or F469 residue of Ang-2 protein tagged with a FLAG sequence ([…], Sigma) at its N-terminal with alanine was added to each well of the plate, which was then allowed to react at a room temperature for 2 hours.
(§2) The plate was washed five times with a 0.05% (v/v) Tween-20 containing PBS, reacted with an anti-FLAG antibody (SIGMA) conjugated with HRP which was diluted in a 1% (v/v) BSA containing PBS at a ratio of 1:5,000 (v/v) at a room temperature for 1 hour, and washed five times with a 0.1% (v/v) Tween-20 containing PBS.
(§3) Finally, 50 ul of TMB substrates (Cell signaling) was added to each well of the plate to induce color development reaction at a room temperature for 3 min. and the reaction was ceased by the addition of 50 ul of Stop solution (Cell signaling) and then, OD450 values were measured on a plate reader (Molecular Devices). By comparing binding affinities with mutated Ang-2 to those of unmutated Ang-2, each epitope of Ang-2 antibodies was identified. The thus obtained measurement results of the binding affinities (%) of mutant Ang-2 against the binding affinity of the native Ang-2 are shown in the following Table 9.

[2] = biological target: T2, mutant Ang-2 protein, F469 substituted …
Method: as §1, §2, §3

[3] = biological target: T3, mutant Ang-2 protein, N421 substituted …
Method: as §1, §2, §3

[4] = biological target: T4, mutant Ang-2 protein, N467 substituted …
Method: as §1, §2, §3

[5] = biological target: T5, mutant Ang-2 protein, P452 substituted …
Method: as §1, §2, §3

[6] = biological target: T6, mutant Ang-2 protein, Y460 substituted …
Method: as §1, §2, §3

Binder	% at RBD binding (mutant Ang-2 against native Ang-2) [1] [%]	% at RBD binding (mutant Ang-2 against native Ang-2) [2] [%]	% at RBD binding (mutant Ang-2 against native Ang-2) [3] [%]	% at RBD binding (mutant Ang-2 against native Ang-2) [4] [%]	% at RBD binding (mutant Ang-2 against native Ang-2) [5] [%]	% at RBD binding (mutant Ang-2 against native Ang-2) [6] [%]
B1	4.1	106	102	95.1	102	100
B2	0.6	102	98.9	96	90.1	98.7
